Usually Km stands for the substrate concentration at which the rate is half of its maximum. The kcat/Km is the second-order rate constant that governs catalysis at low substrate concentration.

Common to all, as to experiment: purified protein
Type in all cases: biochemical, Rhizomucor miehei
Settings in all cases: 50 mM sodium phosphate pH 6.5, 45 °C, 5 min

Substrate in data set [1]: CC(=O)Oc1ccc([N+](=O)[O-])cc1
Substrate in data set [2]: CCCC(=O)Oc1ccc([N+](=O)[O-])cc1
Substrate in data set [3]: CCCCCC(=O)Oc1ccc([N+](=O)[O-])cc1
Substrate in data set [4]: CCCCCCCC(=O)Oc1ccc([N+](=O)[O-])cc1
Substrate in data set [5]: CCCCCCCCCC(=O)Oc1ccc([N+](=O)[O-])cc1
Substrate in data set [6]: CCCCCCCCCCCC(=O)Oc1ccc([N+](=O)[O-])cc1

B1: RmEstA (Rhizomucor miehei) (protein)
chain: MTVGNPPIHPVYAAAFAAMKERPPIHTLDLKVVRESSEARQLAANIKLPEVIEEDKVVESDGKTLKLTIVRPPGTEDQILPVLIFLHGGGFVFGSKYTHIKPVRDLTVKANVVTVFVDYSLSPEAKFPTAIEEIYAAILWVRENASSLNINAEALAVAGDSAGATLSAAVSIYAKEKGLSAAIKTQVLIYPATAVSHAKYESYKLFGNGDYILSAEDLKFFSNAYLPAPASELNDKLATLELATKADLEGLPPALLFTAESDVLRDEGEKYAQQLAEAGVDVAAVRVLGAVHGFITVPVETPQYRFTINTIVAHLRDIYAKYNA
notes: full-length ORF, 324 residues, no signal peptide predicted; C-terminal His tag (pET-30a(+), NdeI/XhoI); E. coli BL21(DE3); Ni-IDA; 34,989 Da calculated, 34 kDa SDS-PAGE
In the case of B1, the Km in the data set “purified protein [1]” was found to be 1 mM; in “purified protein [2]” it was 0.17 mM; in the data set “purified protein [3]” it was 0.12 mM; in the data set “purified protein [4]” it was 0.82 mM; in “purified protein [5]” it was 0.28 mM; in “purified protein [6]”, 0.3 mM. Moreover, the kcat/Km is 370 M⁻¹ s⁻¹ in “purified protein [1]”; 6900 M⁻¹ s⁻¹ in “purified protein [2]”; 8970 M⁻¹ s⁻¹ in “purified protein [3]”; 510 M⁻¹ s⁻¹ in “purified protein [4]”; 130 M⁻¹ s⁻¹ in the data set “purified protein [5]”; 60 M⁻¹ s⁻¹ in the data set “purified protein [6]”.

(Values after publication PMC3813734, “Biochemical Characterization of a First Fungal Esterase from Rhizomucor miehei Showing High Efficiency of Ester Synthesis” (PLoS ONE, 2013).)
